Source: PMC7954794 (2021)
No end group written: not given here.

Tests used:
Test in all cases: FP
[1] = target: NCK2 1|3|2 full-length recombinant protein (SH3-shuffled, tag-free) (mouse, UniProt O55033 1-113; O55033 198-256; O55033 171-197; O55033 114-170; O55033 257-380)
[2] = target: NCK2 2|3|1 full-length recombinant protein (SH3-shuffled, tag-free) (mouse, UniProt O55033 114-170; O55033 60-113; O55033 198-256; O55033 171-197; O55033 2-59; …)
[3] = target: NCK2 2|1|3 full-length recombinant protein (SH3-shuffled, tag-free) (mouse, UniProt O55033 114-170; O55033 60-113; O55033 2-59; O55033 171-380)
[4] = target: NCK2 3|1|2 full-length recombinant protein (SH3-shuffled, tag-free) (mouse, UniProt O55033 198-256; O55033 60-113; O55033 2-59; O55033 171-197; O55033 114-170; …)
[5] = target: NCK2 full-length recombinant protein (mouse, WT, tag-free) (mouse, UniProt O55033 1-380)
[6] = target: NCK2 3|2|1 full-length recombinant protein (SH3-shuffled, tag-free) (mouse, UniProt O55033 198-256; O55033 60-197; O55033 2-59; O55033 257-380)
Sequence of NCK2 3|2|1 full-length recombinant protein (SH3-shuffled, tag-free) (O55033 other isoform, or with tags, fused parts or gaps): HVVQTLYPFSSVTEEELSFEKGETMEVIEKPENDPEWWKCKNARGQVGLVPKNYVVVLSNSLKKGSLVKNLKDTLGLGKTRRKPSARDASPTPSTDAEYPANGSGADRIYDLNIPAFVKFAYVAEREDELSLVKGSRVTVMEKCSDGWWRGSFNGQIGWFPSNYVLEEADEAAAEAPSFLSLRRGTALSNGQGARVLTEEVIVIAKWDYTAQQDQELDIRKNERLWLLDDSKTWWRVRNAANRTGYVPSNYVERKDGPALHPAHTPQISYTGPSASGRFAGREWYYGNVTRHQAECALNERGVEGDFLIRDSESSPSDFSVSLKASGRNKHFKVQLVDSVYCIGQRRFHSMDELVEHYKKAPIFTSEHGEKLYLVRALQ

Sequence of NCK2 full-length recombinant protein (mouse, WT, tag-free) (O55033 whole entry): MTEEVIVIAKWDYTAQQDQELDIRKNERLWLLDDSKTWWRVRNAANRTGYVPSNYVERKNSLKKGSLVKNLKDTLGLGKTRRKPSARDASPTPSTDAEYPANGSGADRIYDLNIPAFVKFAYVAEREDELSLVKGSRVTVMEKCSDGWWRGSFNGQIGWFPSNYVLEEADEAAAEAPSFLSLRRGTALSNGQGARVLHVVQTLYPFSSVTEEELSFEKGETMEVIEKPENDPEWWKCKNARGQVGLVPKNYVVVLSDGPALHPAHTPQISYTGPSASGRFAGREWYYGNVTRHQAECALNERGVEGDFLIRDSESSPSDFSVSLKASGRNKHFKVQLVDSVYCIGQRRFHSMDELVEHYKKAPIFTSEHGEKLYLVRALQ
Sequence of NCK2 2|3|1 full-length recombinant protein (SH3-shuffled, tag-free) (O55033 other isoform, or with tags, fused parts or gaps): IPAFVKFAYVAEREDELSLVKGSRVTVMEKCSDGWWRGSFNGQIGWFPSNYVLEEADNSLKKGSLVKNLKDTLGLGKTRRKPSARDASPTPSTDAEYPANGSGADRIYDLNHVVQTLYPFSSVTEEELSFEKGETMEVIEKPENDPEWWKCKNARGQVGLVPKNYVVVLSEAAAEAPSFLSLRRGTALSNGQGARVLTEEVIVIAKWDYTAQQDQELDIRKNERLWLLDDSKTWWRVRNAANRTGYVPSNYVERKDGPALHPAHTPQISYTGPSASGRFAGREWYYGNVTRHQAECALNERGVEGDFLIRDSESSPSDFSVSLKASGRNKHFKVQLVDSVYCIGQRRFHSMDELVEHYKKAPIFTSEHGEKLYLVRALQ
Sequence of NCK2 3|1|2 full-length recombinant protein (SH3-shuffled, tag-free) (O55033 other isoform, or with tags, fused parts or gaps): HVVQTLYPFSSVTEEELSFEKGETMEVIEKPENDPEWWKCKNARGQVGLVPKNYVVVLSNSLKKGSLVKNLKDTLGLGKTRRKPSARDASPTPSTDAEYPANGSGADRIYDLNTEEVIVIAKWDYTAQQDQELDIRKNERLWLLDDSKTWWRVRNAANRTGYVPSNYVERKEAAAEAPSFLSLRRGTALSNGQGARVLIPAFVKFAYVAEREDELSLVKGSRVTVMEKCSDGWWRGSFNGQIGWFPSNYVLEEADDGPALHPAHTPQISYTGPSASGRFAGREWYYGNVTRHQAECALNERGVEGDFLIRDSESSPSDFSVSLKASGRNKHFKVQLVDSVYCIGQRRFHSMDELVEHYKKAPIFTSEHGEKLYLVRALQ
Sequence of NCK2 1|3|2 full-length recombinant protein (SH3-shuffled, tag-free) (O55033 other isoform, or with tags, fused parts or gaps): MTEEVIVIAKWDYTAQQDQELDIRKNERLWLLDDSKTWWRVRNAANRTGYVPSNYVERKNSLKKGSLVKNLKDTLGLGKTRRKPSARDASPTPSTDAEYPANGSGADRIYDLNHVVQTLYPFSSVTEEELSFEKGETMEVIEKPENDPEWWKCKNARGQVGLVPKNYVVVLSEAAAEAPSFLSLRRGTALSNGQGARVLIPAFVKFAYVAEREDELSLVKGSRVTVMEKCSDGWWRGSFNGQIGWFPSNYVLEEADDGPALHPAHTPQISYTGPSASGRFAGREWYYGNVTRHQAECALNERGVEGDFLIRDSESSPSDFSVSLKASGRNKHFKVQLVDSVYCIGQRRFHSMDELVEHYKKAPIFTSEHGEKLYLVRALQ
Sequence of NCK2 2|1|3 full-length recombinant protein (SH3-shuffled, tag-free) (O55033 other isoform, or with tags, fused parts or gaps): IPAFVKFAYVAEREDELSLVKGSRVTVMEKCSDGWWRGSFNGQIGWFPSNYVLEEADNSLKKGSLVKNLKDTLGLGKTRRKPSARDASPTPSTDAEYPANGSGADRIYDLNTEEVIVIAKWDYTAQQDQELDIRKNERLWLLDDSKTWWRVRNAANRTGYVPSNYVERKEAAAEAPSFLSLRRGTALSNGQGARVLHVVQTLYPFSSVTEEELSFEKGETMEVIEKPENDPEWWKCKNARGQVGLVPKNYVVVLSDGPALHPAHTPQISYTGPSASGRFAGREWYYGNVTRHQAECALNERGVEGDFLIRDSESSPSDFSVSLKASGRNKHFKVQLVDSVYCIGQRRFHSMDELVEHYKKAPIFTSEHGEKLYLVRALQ

Row | Kd [1] [µM] | Kd [2] [µM] | Kd [3] [µM] | Kd [4] [µM] | Kd [5] [µM] | Kd [6] [µM] | Binder
1 | 13.5 | 26.3 | 18 | 16.2 | 12.7 |  | RGQNKERPPPVPNPDY (also: fluorescein isothiocyanate-conjugated (position not given here)) [Cd3ε peptide (RGQNKERPPPVPNPDY), fluorescein isothiocyanate-conjugated]
2 | 77.9 | 21.6 |  | 54.8 | 36 | 31.6 | DIQDKPPAPPMRNTST (also: fluorescein isothiocyanate-conjugated (position not given here)) [PAK1 peptide (DIQDKPPAPPMRNTST), fluorescein isothiocyanate-conjugated]
